The record followed here is patent publication US20250270301A1 (GEN2 NEUROSCIENCE, published 2025).

The term Kd denotes a measure of binding affinity in units of concentration. For orientation: koff means the rate constant with which the complex falls apart. The kon is a measure of how fast the partners come together.

First the molecules themselves.
B1: #44 VH3VK3 humanised hIgG1 (antibody, V domains shown)
VH: QVQLQESGPGLVKPSETLSLTCTVSGIDLSSYAMAWVRQAPGKGLEWIGCIDRRGGTFYASWVKGRFTISKTSTTVDLQMTSLTAEDTATYFCARDSGAFDPWGQGTLVTVSS
VL: DIQMTQSPSSLSASVGDRVTITCQASQSVYDNYLAWYQQKPGQPPKLLIHAASNLASGVPSRFKGSGSGTEFTLTISSLQPDDFATYYCLGEFSCTTTDCNVFGGGTKVEIK
notes: also called VH3Vκ3; Clone VH3VK3 (A)
B2: #44 VH4VK3 humanised hIgG1 (antibody, V domains shown)
VH: QVQLQESGPGLVKPSETLSLTCTVSGIDLSSYAMAWVRQAPGKGLEWIGCIDRRGGTFYASWVKGRFTISKDTSKTTVDLQMTSLTAEDTATYFCARDSGAFDPWGQGTLVTVSS
VL: B1 VL
notes: also called VH4Vκ3; Clone VH4VK3 (D)
B3: #44 VH3VK4 humanised hIgG1 (antibody, V domains shown)
VH: B1 VH
VL: B1 VL with K64S
notes: also called VH3Vκ4; Clone VH3VK4 (B)
B4: #44 VH4VK2 humanised hIgG1 (antibody, V domains shown)
VH: B2 VH
VL: B1 VL with D1Q, Q3V
notes: also called VH4Vκ2; Clone VH4VK2 (C)
B5: #44_VH4VK4_H03/pVL (antibody, V domains shown)
VH: B2 VH with S99A, P104V
VL: B1 VL with K64S
notes: also called Clone VH4_H03; #44_VH4_H03
B6: #44 VH2VK3 humanised hIgG1 (antibody, V domains shown)
VH: QSVQESGPGLVKPSETLSLTCTVSGIDLSSYAMAWVRQAPGKGLEWIGCIDRRGGTFYASWVKGRFTISKTSTTVDLQMTSLTAEDTATYFCARDSGAFDPWGQGTLVTVSS
VL: B1 VL
notes: also called VH2Vκ3
B7: #44 VH1VK4 humanised hIgG1 (antibody, V domains shown)
VH: B6 VH with P8G, Q78K
VL: B1 VL with K64S
notes: also called VH1Vκ4
B8: #44 VH1VK3 humanised hIgG1 (antibody, V domains shown)
VH: B6 VH with P8G, Q78K
VL: B1 VL
notes: also called VH1Vκ3
B9: #44 VH2VK4 humanised hIgG1 (antibody, V domains shown)
VH: B6 VH
VL: B1 VL with K64S
notes: also called VH2Vκ4
B10: #44 VH2VK1 humanised hIgG1 (antibody, V domains shown)
VH: B6 VH
VL: B1 VL with D1Q, Q3V, G58R, P81C, K108E, E110V
notes: also called VH2Vκ1
B11: #44 VH2VK2 humanised hIgG1 (antibody, V domains shown)
VH: B6 VH
VL: B1 VL with D1Q, Q3V
notes: also called VH2Vκ2

Positions count from the first letter of the chain named.

Sequence of monomeric P301S 2N4R tau, pHrodo-labelled (P10636 other isoform, or with tags, fused parts or gaps P301S P301S): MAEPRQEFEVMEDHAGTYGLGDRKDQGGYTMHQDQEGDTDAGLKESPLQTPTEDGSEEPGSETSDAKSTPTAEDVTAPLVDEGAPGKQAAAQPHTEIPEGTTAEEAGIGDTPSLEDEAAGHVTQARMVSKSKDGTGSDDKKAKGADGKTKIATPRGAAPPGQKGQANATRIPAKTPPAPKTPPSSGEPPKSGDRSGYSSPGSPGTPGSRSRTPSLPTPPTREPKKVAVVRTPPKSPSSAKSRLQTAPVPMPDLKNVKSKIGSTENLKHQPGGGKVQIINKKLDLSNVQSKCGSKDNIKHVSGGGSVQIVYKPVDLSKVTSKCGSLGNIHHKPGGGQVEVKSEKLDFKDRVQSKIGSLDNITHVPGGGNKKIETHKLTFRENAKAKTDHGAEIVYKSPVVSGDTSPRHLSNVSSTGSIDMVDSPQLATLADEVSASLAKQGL
T1 sequence (P10636 other isoform, or with tags, fused parts or gaps limits assumed): as the sequence (P10636 other isoform, or with tags, fused parts or gaps P301S P301S) above, with S301P counted along it

One assay addresses T1, full length recombinant human 2N4R tau (human, UniProt P10636 1-758).
T1 construct: bought from rPeptide; pHrodo Red maleimide-labelled where it stands in uptake assays; also called tau1-441; full length tau
As to the kind of experiment: SPR MCK, IgG on Protein A, tau in flow. Here is the method: Slight variations in RMAX are considered likely to be due to differences in ligand capture and not reflective of significant variation in antibody binding characteristics.
22.2 Assessment of antibody binding to tau (Biacore MCK analysis): Binding of anti-tau hIgG1 to full length recombinant 2N4R tau (Rpeptide; SEQ ID NO: 2) was assessed using the Biacore T200 (GE Healthcare, Chicago, IL, USA) running Biacore T200 Evaluation Software V2.0.1. hIgG1 were immobilised on a Protein A capture sensor chip in running buffer (HBS-EP+ buffer containing 1 mg/mL BSA) at 25° C., captured to ˜50 RU at […]. For multi-cycle kinetics experiments, recombinant 2N4R tau was flowed at concentrations ranging from 0.39 nM to 12.5 nM in running buffer at 40 μL/min, with an association time of 60 s and a dissociation time of 200 s. Curves were compared to a reference cell that was mock immobilized (no antibody present).
Consider B1, for which the Kd was 5.7 nM, the “Relative KD (to VH0VK0)” value was 1.75, the off-rate constant (koff) turned out to be 0.0927 s⁻¹ and the kon was 1.63e+07 M⁻¹ s⁻¹.

On to B2, for which the Kd turned out to be 5.14 nM, the “Relative KD (to VH0VK0)” value was determined as 1.58, the koff is 0.0403 s⁻¹ and the on-rate constant (kon) came out at 7.83e+06 M⁻¹ s⁻¹.

Consider B3, for which the Kd came out at 6.57 nM, the “Relative KD (to VH0VK0)” value turned out to be 2.02, the koff was 0.0618 s⁻¹ and the kon was found to be 9.4e+06 M⁻¹ s⁻¹.

Take B4: the Kd was 4.39 nM, the “Relative KD (to VH0VK0)” value came to 1.35, the koff stood at 0.0401 s⁻¹ and the kon worked out at 9.14e+06 M⁻¹ s⁻¹.

The next assay addresses T1, full length recombinant human 2N4R tau. As to the kind of experiment: SPR SCK, IgG on Protein A, tau in flow.
Consider B5, for which the “Fold change (KD, to pVH/pVL)” value amounted to 1.03; the Kd is 6.4 nM; the koff worked out at 0.0151 s⁻¹; the kon is 2.36e+06 M⁻¹ s⁻¹.

A further assay deals with T2, Bovine serum albumin (bovine, UniProt P02769 25-607).
T2 construct: also called BSA
T2 sequence (P02769 25-607 limits assumed): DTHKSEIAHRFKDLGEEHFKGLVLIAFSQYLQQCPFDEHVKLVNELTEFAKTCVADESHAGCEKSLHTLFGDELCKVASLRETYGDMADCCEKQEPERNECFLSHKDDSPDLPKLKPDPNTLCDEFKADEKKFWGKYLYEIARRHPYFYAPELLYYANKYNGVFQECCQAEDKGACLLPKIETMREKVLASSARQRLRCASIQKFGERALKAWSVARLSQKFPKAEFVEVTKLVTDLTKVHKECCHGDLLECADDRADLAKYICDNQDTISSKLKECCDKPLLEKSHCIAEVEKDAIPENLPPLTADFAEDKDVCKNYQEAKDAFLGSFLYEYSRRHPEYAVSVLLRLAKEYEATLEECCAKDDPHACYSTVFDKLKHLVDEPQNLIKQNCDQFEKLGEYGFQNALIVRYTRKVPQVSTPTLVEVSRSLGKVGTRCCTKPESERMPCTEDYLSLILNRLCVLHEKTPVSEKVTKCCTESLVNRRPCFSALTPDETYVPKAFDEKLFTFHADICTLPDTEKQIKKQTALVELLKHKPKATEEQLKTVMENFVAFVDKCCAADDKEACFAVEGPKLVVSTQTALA
As to the kind of experiment: ELISA on 1% BSA, HEK supernatant, anti-human IgG-HRP, n=1. The protocol:
FIG. 7. A panel of humanised anti-tau IgG bind to full length recombinant 2N4R tau in an ELISA format. Supernatants from HEK cells transiently transfected with each IgG clone were tested at 1:100 for binding to full length recombinant 2N4R tau (solid bars). […] Binding of anti-tau hIgG1 was detected using an HRP-conjugated anti-human secondary antibody and data are shown from a representative experiment (n=1 replicate).
Antigen was removed from wells and the plates were then blocked for 1 hour at RT with 5% dried milk in 1×TBS. Blocking solution was removed, HEK293 cell supernatant (1:100 in 1% BSA/1×TBS) was added to relevant wells, and plates were incubated for 1 hour at RT with gentle shaking. Plates were then washed four times with TBS/0.1% Tween (TBST). Goat anti-human IgG-HRP antibody (Thermo Fisher Scientific, Waltham, MA, USA), diluted 1:2000 in 5% milk/TBS, was added to each well and plates were incubated for 1 hour at RT with gentle shaking before being washed four times with TBST. 3,3′,5,5′-tetramethylbenzidine (TMB) ELISA solution was added to each well and plates were incubated for 15 mins at RT. An equal volume of 1 M sulfuric acid was added to each well and OD was measured at 450 nm.
Regarding B1, the binding result is on record as “no binding (tested: supernatant 1:100)”.

B6: the binding result is listed as “no binding (tested: supernatant 1:100)”.

Take B7: the binding result is on record as “no binding (tested: supernatant 1:100)”.

As to B8, the binding result is on record as “no binding (tested: supernatant 1:100)”.

Regarding B2, the binding result is given as “no binding (tested: supernatant 1:100)”.

As for B9, the binding result is “no binding (tested: supernatant 1:100)”.

For B10, the binding result is listed as “no binding (tested: supernatant 1:100)”.

For the molecule B11, the binding result was “no binding (tested: supernatant 1:100)”.

Consider B3, for which the binding result is “no binding (tested: supernatant 1:100)”.

For the molecule B4, the binding result is reported as “no binding (tested: supernatant 1:100)”.

The next assay concerns the target monomeric P301S 2N4R tau, pHrodo-labelled (human, UniProt P10636 1-758, pHrodo Red maleimide label). Nature of the assay: cell-based or functional assay.
As to B1, the “increase of monomeric tau uptake into human iPSC-derived microglia” value turned out to be 16.1%, the “inhibition of monomeric tau uptake into human iPSC-derived astrocytes” value amounted to 85.2% and the “inhibition of monomeric tau uptake into human iPSC-derived neurons” value came out at 48.4%.

On to B2, for which the “increase of monomeric tau uptake into human iPSC-derived microglia” value came to 60.2%, the “inhibition of monomeric tau uptake into human iPSC-derived astrocytes” value turned out to be 87.5% and the “inhibition of monomeric tau uptake into human iPSC-derived neurons” value was 41.8%.

With B3, the “increase of monomeric tau uptake into human iPSC-derived microglia” value is 80.3%, the “inhibition of monomeric tau uptake into human iPSC-derived astrocytes” value turned out to be 87.6% and the “inhibition of monomeric tau uptake into human iPSC-derived neurons” value is 43.1%.

B4: the “increase of monomeric tau uptake into human iPSC-derived microglia” value was found to be 71.4%, the “inhibition of monomeric tau uptake into human iPSC-derived astrocytes” value worked out at 84.6% and the “inhibition of monomeric tau uptake into human iPSC-derived neurons” value was 50%.

The target in the next assay is aggregated (oligomeric) P301S 2N4R tau, pHrodo-labelled (human, UniProt P10636 1-758, pHrodo Red maleimide label). Nature of the assay: cell-based or functional assay.
Sequence of aggregated (oligomeric) P301S 2N4R tau, pHrodo-labelled (P10636 other isoform, or with tags, fused parts or gaps P301S P301S): as the sequence (P10636 other isoform, or with tags, fused parts or gaps P301S P301S) above
In the case of B1, the “increase of aggregated tau uptake into human iPSC-derived microglia” value amounted to 77.7%, the “inhibition of aggregated tau uptake into human iPSC-derived astrocytes” value was found to be 46.4% and the “inhibition of aggregated tau uptake into human iPSC-derived neurons” value was 30.6%.

As to B2, the “increase of aggregated tau uptake into human iPSC-derived microglia” value was 90.5%, the “inhibition of aggregated tau uptake into human iPSC-derived astrocytes” value is 49.9% and the “inhibition of aggregated tau uptake into human iPSC-derived neurons” value amounted to 36.3%.

As to B3, the “increase of aggregated tau uptake into human iPSC-derived microglia” value turned out to be 83.9%, the “inhibition of aggregated tau uptake into human iPSC-derived astrocytes” value is 45% and the “inhibition of aggregated tau uptake into human iPSC-derived neurons” value stood at 33.3%.

Consider B4, for which the “increase of aggregated tau uptake into human iPSC-derived microglia” value was 97.6%, the “inhibition of aggregated tau uptake into human iPSC-derived astrocytes” value was 48% and the “inhibition of aggregated tau uptake into human iPSC-derived neurons” value was 41.9%.

A further assay concerns the target T2, Bovine serum albumin. As to the kind of experiment: ELISA on 1% BSA, HEK supernatant, anti-human IgG-HRP, n=1. The source holds these as a separate data set.
Regarding B5, the binding result was “no binding (tested: 30 ng/ml (legend 1:100))”.

In the next assay the target is T1, full length recombinant human 2N4R tau. Nature of the assay: SPR SCK, IgG on Protein A, tau in flow. This is another data set of the same source. The protocol:
21.5 Assessment of antibody binding to tau (Biacore SCK analysis): Binding of anti-tau hIgG1 to full length recombinant 2N4R tau (Rpeptide; SEQ ID NO: 2) was assessed using the Biacore T200 (GE Healthcare, Chicago, IL, USA) running Biacore T200 Evaluation Software V2.0.1. hIgG1 were immobilised on a Protein A capture sensor chip in running buffer (HBS-EP+ buffer containing 1 mg/mL BSA) at 25° C., captured to ˜50 RU at 10 μL/min. For single-cycle kinetics experiments, recombinant 2N4R tau was flowed at concentrations ranging from 1.25 nM to 10 nM (2-fold dilutions) with an association time of 60 s and a dissociation time of 200 s. Curves were compared to a reference cell that was mock immobilized (no antibody present).
As to B1, the Kd stood at 7.71 nM, the “Relative KD (to VH0VK0)” value is 2.01, the koff was 0.0341 s⁻¹ and the kon worked out at 4.43e+06 M⁻¹ s⁻¹.

Take B6: the dissociation constant (Kd) turned out to be 4.52 nM, the “Relative KD (to VH0VK0)” value came to 1.18, the koff was determined as 0.0187 s⁻¹ and the kon came to 4.14e+06 M⁻¹ s⁻¹.

In the case of B7, the Kd was determined as 4.15 nM, the “Relative KD (to VH0VK0)” value is 1.08, the koff was 0.0208 s⁻¹ and the association rate constant (kon) is 5.01e+06 M⁻¹ s⁻¹.

Turning to B8, the Kd was found to be 5 nM, the “Relative KD (to VH0VK0)” value is 1.31, the koff was 0.0129 s⁻¹ and the kon was found to be 2.58e+06 M⁻¹ s⁻¹.

Regarding B2, the Kd was found to be 6.68 nM, the “Relative KD (to VH0VK0)” value worked out at 1.74, the koff worked out at 0.034 s⁻¹ and the kon is 5.09e+06 M⁻¹ s⁻¹.

In the case of B9, the Kd worked out at 5.33 nM, the “Relative KD (to VH0VK0)” value came to 1.39, the koff turned out to be 0.0195 s⁻¹ and the kon was 3.66e+06 M⁻¹ s⁻¹.

For the molecule B10, the equilibrium dissociation constant (Kd) stood at 7.94 nM, the “Relative KD (to VH0VK0)” value is 2.07, the koff came to 0.021 s⁻¹ and the on-rate constant (kon) amounted to 2.64e+06 M⁻¹ s⁻¹.

On to B11, for which the dissociation constant (Kd) came out at 5 nM, the “Relative KD (to VH0VK0)” value was 1.31, the off-rate constant (koff) worked out at 0.0182 s⁻¹ and the kon is 3.63e+06 M⁻¹ s⁻¹.

With B3, the Kd amounted to 7.02 nM, the “Relative KD (to VH0VK0)” value turned out to be 1.83, the off-rate constant (koff) amounted to 0.043 s⁻¹ and the kon was 6.12e+06 M⁻¹ s⁻¹.

B4: the Kd was 6.86 nM, the “Relative KD (to VH0VK0)” value amounted to 1.79, the off-rate constant (koff) came out at 0.0247 s⁻¹ and the kon came out at 3.6e+06 M⁻¹ s⁻¹.
